Results: publication PMC2568806, “Two Estrogen Response Element Sequences Near the PCNA Gene Are Not Responsible for Its Estrogen-Enhanced Expression in MCF7 Cells”

B1: consensus ERE (dsDNA)
DNA 1: GGATCTAGGTCACTGTGACCCCGGATC
DNA 2: GATCCGGGGTCACAGTGACCTAGATCC
B2: PCNA-ERE1 (dsDNA)
DNA 1: GGGAGTTTGAGGCCAGCCTGACCAACATTG
DNA 2: CAATGTTGGTCAGGCTGGCCTCAAACTCCC

How the values were obtained:
[1] = target: T1, recombinant estrogen receptor alpha (rERα) (UniProt P03372 1-595); test: EMSA, supershift; HESC nuclear extract; 25 mM Tris-HCl pH 8.0, 50 mM KCl, 6.25 mM MgCl2, 10% glycerol, 0.5 mM DTT; 5 µg HESC nuclear extract + 170 nM rERα; 5% acrylamide gel in TBE; temperature not stated; conditions: protein: commercial; chain copies: 2; label: 32P 5' end; blunt
T1 sequence (P03372 whole entry): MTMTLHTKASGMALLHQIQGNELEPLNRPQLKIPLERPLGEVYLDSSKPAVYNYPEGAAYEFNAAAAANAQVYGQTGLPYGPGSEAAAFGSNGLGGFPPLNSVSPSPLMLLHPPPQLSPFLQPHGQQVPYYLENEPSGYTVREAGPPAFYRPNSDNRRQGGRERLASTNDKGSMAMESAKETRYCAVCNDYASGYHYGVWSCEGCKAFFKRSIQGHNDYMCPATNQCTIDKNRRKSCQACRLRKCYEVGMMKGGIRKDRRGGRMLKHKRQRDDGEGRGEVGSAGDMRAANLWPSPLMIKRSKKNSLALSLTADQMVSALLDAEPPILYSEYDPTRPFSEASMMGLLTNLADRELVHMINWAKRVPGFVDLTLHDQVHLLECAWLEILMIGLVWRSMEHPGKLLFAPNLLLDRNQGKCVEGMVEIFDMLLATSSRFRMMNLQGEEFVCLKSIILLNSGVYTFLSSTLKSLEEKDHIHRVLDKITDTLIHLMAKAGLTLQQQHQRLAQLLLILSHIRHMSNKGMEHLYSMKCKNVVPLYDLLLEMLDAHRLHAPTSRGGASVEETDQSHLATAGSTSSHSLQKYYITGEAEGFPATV

[2] = target: T1, recombinant estrogen receptor alpha …; test: EMSA, supershift; HESC nuclear extract; weaker than consensus ERE, stronger than PCNA-ERE2; 25 mM Tris-HCl pH 8.0, 50 mM KCl, 6.25 mM MgCl2, 10% glycerol, 0.5 mM DTT; 5 µg HESC nuclear extract + 170 nM rERα; 5% acrylamide gel in TBE; temperature not stated; conditions: protein: commercial; chain copies: 2; blunt

| Binder | binding result [1] | binding result [2] |
| --- | --- | --- |
| B1 | binds |  |
| B2 |  | binds |
